Measurements from patent US20230051715A1 (MABWELL THERAPEUTICS, published 2023).

T1: rat C1s (produced in house) (rat, UniProt Q6P6T1 16-688)
T1 construct: also called RaC1s
T1 sequence: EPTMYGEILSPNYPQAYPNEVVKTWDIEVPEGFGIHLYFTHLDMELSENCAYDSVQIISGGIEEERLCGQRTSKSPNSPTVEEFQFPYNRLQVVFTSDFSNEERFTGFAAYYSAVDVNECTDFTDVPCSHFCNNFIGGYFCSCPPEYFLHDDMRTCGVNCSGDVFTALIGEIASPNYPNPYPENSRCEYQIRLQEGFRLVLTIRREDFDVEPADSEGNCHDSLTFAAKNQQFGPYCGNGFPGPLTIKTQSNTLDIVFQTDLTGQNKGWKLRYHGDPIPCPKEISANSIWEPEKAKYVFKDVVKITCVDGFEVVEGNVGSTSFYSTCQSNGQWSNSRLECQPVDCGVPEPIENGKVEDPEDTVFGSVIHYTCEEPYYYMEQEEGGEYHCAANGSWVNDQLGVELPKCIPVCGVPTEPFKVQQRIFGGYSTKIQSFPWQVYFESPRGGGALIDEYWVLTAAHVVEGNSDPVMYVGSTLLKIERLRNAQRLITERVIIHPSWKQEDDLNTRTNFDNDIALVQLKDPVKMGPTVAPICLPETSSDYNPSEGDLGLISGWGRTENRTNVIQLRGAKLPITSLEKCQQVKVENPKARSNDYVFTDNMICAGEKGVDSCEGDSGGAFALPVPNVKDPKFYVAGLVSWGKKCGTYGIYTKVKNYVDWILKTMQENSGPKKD

T2: human C1s mutant M1 (M277I) (human, UniProt P09871 16-688)
T2 construct: The entry is the mutant itself
T2 sequence: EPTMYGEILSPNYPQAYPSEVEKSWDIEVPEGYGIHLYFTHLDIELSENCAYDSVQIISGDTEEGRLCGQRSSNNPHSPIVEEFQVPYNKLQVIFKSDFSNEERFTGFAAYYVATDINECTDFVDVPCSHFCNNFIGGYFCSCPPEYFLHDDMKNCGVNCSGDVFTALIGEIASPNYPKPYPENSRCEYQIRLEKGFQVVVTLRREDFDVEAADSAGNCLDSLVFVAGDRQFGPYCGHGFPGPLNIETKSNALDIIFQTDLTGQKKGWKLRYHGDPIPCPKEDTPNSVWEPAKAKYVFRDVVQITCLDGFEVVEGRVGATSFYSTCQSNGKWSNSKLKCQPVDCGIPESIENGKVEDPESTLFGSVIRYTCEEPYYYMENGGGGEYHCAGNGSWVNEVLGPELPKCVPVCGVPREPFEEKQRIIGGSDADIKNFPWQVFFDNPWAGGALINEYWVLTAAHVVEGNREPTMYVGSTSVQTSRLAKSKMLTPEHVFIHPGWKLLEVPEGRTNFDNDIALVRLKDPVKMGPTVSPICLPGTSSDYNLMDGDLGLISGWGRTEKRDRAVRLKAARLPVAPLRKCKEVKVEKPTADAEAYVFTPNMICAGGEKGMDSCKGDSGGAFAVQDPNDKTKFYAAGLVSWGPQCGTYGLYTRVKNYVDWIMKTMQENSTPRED

B1: Anti-C1s antibody 2-8 (antibody, V domains shown)
VH: EVQLQQSGAELVRPGALVKLSCKASGFNIKEYYMHWVKQRPEQGLEWIGWIDPENGDTIYDPKFQGKASITADTSSNTAYLQLSSLTSEDTAVYYCARSRLFFAYWGQGTLVTVSA
VL: DIVMTQSHKFMSTSVGDRVSFTCKASQDVRTAVDWYQQKPGQSPKLLIYSASYRYTGVPDRFTGTGSGTDFTFTISSVQAEDLAVYFCQQQYTTPYTFGGGTKLEIKT
notes: the HC/LC entries may hold it too; also called clone 2-8
B2: Anti-C1s antibody hz2-7(H1L2) (antibody, V domains shown)
VH: EVQLLESGGGLVQPGGSLRLSCAASGFTFSNYFMNWVRQAPGKGLEWVSEIRLKFTNYATHYADSVKGRFTISRDDSKSTLYLQMNSLRAEDTAVYYCTRDYGSRNGYFDYWGQGTLVTVSS
VL: DIVMTQTPLSLPVTPGEPASISCRSSKSLLHSNGNTFLYWFLQKPGQSPQLLIYRMSNLASGVPDRFSGSGSGTDFTLKISRVEAEDVGVYYCMQHLEYPYTFGGGTKLEIKR
notes: Humanized, human IgG1 / kappa; also called hz2-7(1L2)
B3: Anti-C1s antibody 2-7 (antibody, human IgG1, kappa, V domains shown)
VH: EVKLEESGGGLVPPGGSMKLSCVASGFTFSNYFMNWVRQSPEKGLEWVAEIRLKFTNYATHYAESVEGRFTISRDDSKSSVYLQMNNLRAEDTGIYYCTRDYGSRNGYFDYWGQGTTLTVSS
VL: DIVMTQAAPSVPVTPGESVSISCRSSKSLLHSNGNTFLYWFLQRPGQSPQLLIYRMSNLASGVPDRFSGSGSGTAFTLRVSRVEAEDVGIYYCMQHLEYPYTFGGGTKLEIKT
notes: the HC/LC entries may hold it too; also called clone 2-7
B4: Anti-C1s antibody hz2-8 (H1L2 G80A) (antibody, V domains shown)
VH: QVQLVQSGAEVKKPGASVKVSCKASGFNIKEYYMHWVRQAPEQGLEWMGWIDPENADTIYAQKFQGRVTITADTSTNTAYMELSSLRSEDTAVYYCARSRLFFAYWGQGTLVTVSS
VL: DIQMTQSPKSLSASVGDRVTITCRASQDVRTALDWYQQKPGQSPKLLIYSASYRYSGVPSRFSGSGSGTDFTLTISSLQPEDFATYYCQQQYTTPYTFGQGTKLEIKR
notes: Humanized variant with G80A in HC CDR2 (already in the entry), human IgG1 / kappa
B5: Anti-C1s antibody hz2-8 (H1L2 G80A/T82A) (antibody, V domains shown)
VH: QVQLVQSGAEVKKPGASVKVSCKASGFNIKEYYMHWVRQAPEQGLEWMGWIDPENADAIYAQKFQGRVTITADTSTNTAYMELSSLRSEDTAVYYCARSRLFFAYWGQGTLVTVSS
VL: DIQMTQSPKSLSASVGDRVTITCRASQDVRTALDWYQQKPGQSPKLLIYSASYRYSGVPSRFSGSGSGTDFTLTISSLQPEDFATYYCQQQYTTPYTFGQGTKLEIKR
notes: Humanized variant with G80A and T82A in HC CDR2 (already in the entry), human IgG1 / kappa

Legend:
[1] = target: T1, rat C1s (produced in house); test: ELISA, plate coated with 200 ng/well RatC1s, OD450nm
Description: The next morning, plates were blocked with SuperBlock T20 blocking buffer (Thermo Scientific 37536) for 1 h with gentle shaking. Then, various concentrations of anti-C1s antibodies diluted in SuperBlock T20 blocking buffer were added to the plates and incubated for 1 h with gentle shaking. Mouse IgG (Sigma-Aldrich I5381) and Human IgG1 (BioXCell BP0297) were used as negative controls. The plates were washed before incubating with HRP conjugated secondary antibodies diluted in SuperBlock T20 blocking buffer (goat anti-mouse IgG (H+L) cross-adsorbed secondary antibody HRP (Invitrogen G-21040) or goat anti-human IgG antibody, HRP conjugate (Millipore AP309P)) for 1 h with gentle shaking. At last, the plates were washed and color developed with ELISA liquid substrate (Sigma-Aldrich), followed by stopping the reaction with addition of the same volume of […] 1M H₂SO₄. Bound antibody was measured by absorbance at OD₄₅₀ₙₘ.

[2] = target: T2, human C1s mutant M1 (M277I); test: ELISA, plate coated with human C1s mutant M1: M277I, OD450nm
Description: ELISA was carried out by first coating 96-well plates with 200 ng/well of full-length or truncated C1s proteins overnight. The next morning, plates were blocked with SuperBlock T20 blocking buffer (Thermo Scientific 37536) for 1 h with gentle shaking. Then, various concentrations of anti-C1s antibodies diluted in SuperBlock T20 blocking buffer were added to the plates and incubated for 1 h with gentle shaking. Mouse IgG (Sigma-Aldrich 15381) and human IgG1 (BioXCell BP0297) were used as negative controls. The plates were washed before incubating with HRP conjugated secondary antibodies diluted in SuperBlock T20 blocking buffer (goat anti-mouse IgG (H+L) cross-adsorbed secondary antibody HRP (Invitrogen G-21040) or goat anti-human IgG antibody, HRP conjugate (Millipore AP309P)) for 1 h with gentle shaking. At last, the plates were washed and color developed with ELISA liquid HRP substrate (Sigma-Aldrich), followed by stopping the reaction with addition of 1M H₂SO₄ in the same volume as the ELISA liquid substrate. Bound antibody was measured by absorbance at OD₄₅₀ₙₘ.
Binding of anti-C1s antibodies to mutants M1-M20 of human C1s was measured by ELISA as described in Example 4, and results are shown in FIGS. 6B-6U. All anti-C1s humanized variants including hz2-7(H1L2), hz2-8(H1L2 G80A) and hz2-8(H1L2 G80A/T82A) maintained strong binding properties to the majority (16 out of 20) of C1s mutants including M1 (FIG. 6B), M2 (FIG. 6C), M3 (FIG. 6D). M4 (FIG. 6E), M7 (FIG. 6H), M8 (FIG. 6I), M10 (FIG. 6K), M11 (FIG. 6L), M12 (FIG. 6M), M13 (FIG. 6N), M15 (FIG. 6P), M16 (FIG. 6Q), M17 (FIG. 6R), M18 (FIG. 6S), M19 (FIG. 6T) and M20 (FIG. 6U).

| Binder | EC50 [1] | binding result [1] | EC50 [2] |
| --- | --- | --- | --- |
| B1 | 63 ng/mL |  |  |
| B2 |  | no binding (tested: 1000 ng/ml (Log 3)) | 9 ng/mL |
| B3 |  | no binding (tested: 1000 ng/ml (Log 3)) |  |
| B4 |  |  | 7 ng/mL |
| B5 | 105 ng/mL |  | 5 ng/mL |
